Measured values taken from patent publication US20260242735A1 (UNIVERSIT T BASEL, published 2026).
Each block holds one binder with its values, some of them ahead of it.

Assays:
Experiment in all cases: alanine scan, flow cytometry, HEK293-T;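 further: antibody binding to each alanine-substituted CD33 mutant expressed transiently in HEK293-T, read as fluorescence minus background, mean of duplicates, relative to wild-type CD33 set as 100%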
[1] = target: human CD33 T185A (human, UniProt P20138 18-364)
human CD33 T185A, sequence (P20138 18-364 T185A limits assumed): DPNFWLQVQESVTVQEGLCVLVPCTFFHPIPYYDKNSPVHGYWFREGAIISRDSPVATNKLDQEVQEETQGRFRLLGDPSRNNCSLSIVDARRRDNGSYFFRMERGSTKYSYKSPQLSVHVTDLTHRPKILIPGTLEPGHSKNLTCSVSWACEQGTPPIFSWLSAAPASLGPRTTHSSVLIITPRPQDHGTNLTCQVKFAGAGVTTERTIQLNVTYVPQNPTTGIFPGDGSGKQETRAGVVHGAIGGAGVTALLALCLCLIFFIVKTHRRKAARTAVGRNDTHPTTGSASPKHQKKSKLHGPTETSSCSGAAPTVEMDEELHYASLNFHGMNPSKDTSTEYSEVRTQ

[2] = target: human CD33 S186A (human, UniProt P20138 18-364)
human CD33 S186A, sequence (P20138 18-364 S186A limits assumed): as the sequence (P20138 18-364 T185A limits assumed) above, with A168T, S169A counted along it

[3] = target: human CD33 L187A (human, UniProt P20138 18-364)
human CD33 L187A, sequence (P20138 18-364 L187A limits assumed): as the sequence (P20138 18-364 T185A limits assumed) above, with A168T, L170A counted along it

[4] = target: human CD33 G188A (human, UniProt P20138 18-364)
human CD33 G188A, sequence (P20138 18-364 G188A limits assumed): as the sequence (P20138 18-364 T185A limits assumed) above, with A168T, G171A counted along it

[5] = target: human CD33 V196A (human, UniProt P20138 18-364)
human CD33 V196A, sequence (P20138 18-364 V196A limits assumed): as the sequence (P20138 18-364 T185A limits assumed) above, with A168T, V179A counted along it

[6] = target: human CD33 D205A (human, UniProt P20138 18-364)
[7] = target: human CD33 T208A (human, UniProt P20138 18-364)
human CD33 T208A, sequence (P20138 18-364 T208A limits assumed): as the sequence (P20138 18-364 T185A limits assumed) above, with A168T, T191A counted along it

[8] = target: human CD33 N209A (human, UniProt P20138 18-364)
human CD33 N209A, sequence (P20138 18-364 N209A limits assumed): as the sequence (P20138 18-364 T185A limits assumed) above, with A168T, N192A counted along it

[9] = target: human CD33 T211A (human, UniProt P20138 18-364)
human CD33 T211A, sequence (P20138 18-364 T211A limits assumed): as the sequence (P20138 18-364 T185A limits assumed) above, with A168T, T194A counted along it

[10] = target: human CD33 Q213A (human, UniProt P20138 18-364)
human CD33 Q213A, sequence (P20138 18-364 Q213A limits assumed): as the sequence (P20138 18-364 T185A limits assumed) above, with A168T, Q196A counted along it

[11] = target: human CD33 V214A (human, UniProt P20138 18-364)
human CD33 V214A, sequence (P20138 18-364 V214A limits assumed): as the sequence (P20138 18-364 T185A limits assumed) above, with A168T, V197A counted along it

[12] = target: human CD33 E224A (human, UniProt P20138 18-364)
human CD33 E224A, sequence (P20138 18-364 E224A limits assumed): as the sequence (P20138 18-364 T185A limits assumed) above, with A168T, E207A counted along it

[13] = target: human CD33 N237A (human, UniProt P20138 18-364)
human CD33 N237A, sequence (P20138 18-364 N237A limits assumed): as the sequence (P20138 18-364 T185A limits assumed) above, with A168T, N220A counted along it

[14] = target: human CD33 G241A (human, UniProt P20138 18-364)
human CD33 G241A, sequence (P20138 18-364 G241A limits assumed): as the sequence (P20138 18-364 T185A limits assumed) above, with A168T, G224A counted along it

[15] = target: human CD33 I242A (human, UniProt P20138 18-364)
human CD33 I242A, sequence (P20138 18-364 I242A limits assumed): as the sequence (P20138 18-364 T185A limits assumed) above, with A168T, I225A counted along it

[16] = target: human CD33 K250A (human, UniProt P20138 18-364)
[17] = target: human CD33 A265S (human, UniProt P20138 18-364)
[18] = target: human CD33 L270A (human, UniProt P20138 18-364)
[19] = target: human CD33 A272S (human, UniProt P20138 18-364)
[20] = target: human CD33 L273A (human, UniProt P20138 18-364)
[21] = target: human CD33 F280A (human, UniProt P20138 18-364)
[22] = target: human CD33 I281A (human, UniProt P20138 18-364)
[23] = target: human CD33 V282A (human, UniProt P20138 18-364)
[24] = target: human CD33 H285A (human, UniProt P20138 18-364)
[25] = target: human CD33 R286A (human, UniProt P20138 18-364)
[26] = target: human CD33 R291A (human, UniProt P20138 18-364)
[27] = target: human CD33 G295A (human, UniProt P20138 18-364)
[28] = target: human CD33 D298A (human, UniProt P20138 18-364)
[29] = target: human CD33 H300A (human, UniProt P20138 18-364)
[30] = target: human CD33 S307A (human, UniProt P20138 18-364)
[31] = target: human CD33 P308A (human, UniProt P20138 18-364)
[32] = target: human CD33 Q311A (human, UniProt P20138 18-364)
[33] = target: human CD33 K312A (human, UniProt P20138 18-364)
[34] = target: human CD33 K315A (human, UniProt P20138 18-364)
[35] = target: human CD33 L316A (human, UniProt P20138 18-364)
[36] = target: human CD33 G247A (human, UniProt P20138 18-364)

B2: Refmab #2 (antibody, V domains shown)
VH: QVQLVQSGAEVKKPGSSVKVSCKASGGTFSDYAISWVRQAPGQGLEWMGRIIPILGVADYAQKFQGRVTITADKSTRTAYMELSSLRSEDTAVYYCARNWADAFDIWGQGTMVTVSS
VL: DIQLTQSPSSLSASVGDRVTITCRASQGISSVLAWYQQKPGKAPKLLIYDASSLESGVPSRFSGSGSGTDFTLTISSLQPEDFATYYCQQFDSSITFGQGTKLEIK
notes: In the alanine scan antibodies were used as IgG or Fab
- Mean % WT Binding [1]: 118%
- Mean % WT Binding [2]: 120%
- Mean % WT Binding [3]: 144%
- Mean % WT Binding [4]: 130%
- Mean % WT Binding [5]: 106%
- Mean % WT Binding [6]: 2.8%
- Mean % WT Binding [7]: 117%
- Mean % WT Binding [8]: 104%
- Mean % WT Binding [9]: 111%
- Mean % WT Binding [10]: 115%
- Mean % WT Binding [11]: 118%
- Mean % WT Binding [12]: 102%
- Mean % WT Binding [13]: 112%
- Mean % WT Binding [14]: 111%
- Mean % WT Binding [15]: 98.6%

B5: Refmab #1 (antibody, V domains shown)
VH: EVQLVQSGAEVKKPGSSVKVSCKASGYTITDSNIHWVRQAPGQSLEWIGYIYPYNGGTDYNQKFKNRATLTVDNPTNTAYMELSSLRSEDTAFYYCVNGNPWLAYWGQGTLVTVSS
VL: DIQLTQSPSTLSASVGDRVTITCRASESLDNYGIRFLTWFQQKPGKAPKLLMYAASNQGSGVPSRFSGSGSGTEFTLTISSLQPDDFATYYCQQTKEVPWSFGQGTKVEVK
notes: In the alanine scan antibodies were used as IgG or Fab; also called hP67.6
- Mean % WT Binding [1]: 92.3%
- Mean % WT Binding [2]: 92.5%
- Mean % WT Binding [3]: 92.3%
- Mean % WT Binding [4]: 102%
- Mean % WT Binding [5]: 83.9%
- Mean % WT Binding [6]: 1.6%
- Mean % WT Binding [7]: 101%
- Mean % WT Binding [8]: 92.1%
- Mean % WT Binding [9]: 82.4%
- Mean % WT Binding [10]: 95.3%
- Mean % WT Binding [11]: 80.5%
- Mean % WT Binding [12]: 95.4%
- Mean % WT Binding [13]: 98.7%
- Mean % WT Binding [14]: 102%
- Mean % WT Binding [15]: 77.9%

B6: Refmab #1 (antibody, V domains shown)
VH: B5 VH
VL: B5 VL
notes: The alanine scan used IgG or Fab; also called hP67.6
- Mean % WT Binding [16]: 86.7 % WT binding
- Mean % WT Binding [17]: 93.2 % WT binding
- Mean % WT Binding [18]: 102 % WT binding
- Mean % WT Binding [19]: 87.6 % WT binding
- Mean % WT Binding [20]: 110 % WT binding
- Mean % WT Binding [21]: 98.4 % WT binding
- Mean % WT Binding [22]: 85 % WT binding
- Mean % WT Binding [23]: 109 % WT binding
- Mean % WT Binding [24]: 100 % WT binding
- Mean % WT Binding [25]: 96.3 % WT binding
- Mean % WT Binding [26]: 97.8 % WT binding
- Mean % WT Binding [27]: 92.7 % WT binding
- Mean % WT Binding [28]: 97.8 % WT binding
- Mean % WT Binding [29]: 76.5 % WT binding
- Mean % WT Binding [30]: 94.8 % WT binding
- Mean % WT Binding [31]: 94.3 % WT binding
- Mean % WT Binding [32]: 90.4 % WT binding
- Mean % WT Binding [33]: 83.8 % WT binding
- Mean % WT Binding [34]: 80.6 % WT binding
- Mean % WT Binding [35]: 84.6 % WT binding
- Mean % WT Binding [36]: 98.5 % WT binding

Other lines, results leading:

- Mean % WT Binding [1]: 105%
- Mean % WT Binding [2]: 106%
- Mean % WT Binding [3]: 95.5%
- Mean % WT Binding [4]: 85.1%
- Mean % WT Binding [5]: 105%
- Mean % WT Binding [6]: 8.1%
- Mean % WT Binding [7]: 83.6%
- Mean % WT Binding [8]: 91.7%
- Mean % WT Binding [9]: 96.2%
- Mean % WT Binding [10]: 135%
- Mean % WT Binding [11]: 102%
- Mean % WT Binding [12]: 83.2%
- Mean % WT Binding [13]: 85.6%
- Mean % WT Binding [14]: 128%
- Mean % WT Binding [15]: 128%
B1: Refmab #3 (antibody, V domains shown)
VH: QVQLVQSGAEVKKPGSSVKVSCKASGYTFTDYNMHWVRQAPGQGLEWIGYIYPYNGGTGYNQKFKSKATITADESTNTAYMELSSLRSEDTAVYYCARGRPAMDYWGQGTLVTVSS
VL: DIQMTQSPSSLSASVGDRVTITCRASESVDNYGISFMNWFQQKPGKAPKLLIYAASNQGSGVPSRFSGSGSGTDFTLTISSLQPDDFATYYCQQSKEVPWTFGQGTKVEIK
notes: as for B2

- Mean % WT Binding [16]: 108 % WT binding
- Mean % WT Binding [17]: 104 % WT binding
- Mean % WT Binding [18]: 119 % WT binding
- Mean % WT Binding [19]: 110 % WT binding
- Mean % WT Binding [20]: 117 % WT binding
- Mean % WT Binding [21]: 120 % WT binding
- Mean % WT Binding [22]: 114 % WT binding
- Mean % WT Binding [23]: 112 % WT binding
- Mean % WT Binding [24]: 109 % WT binding
- Mean % WT Binding [25]: 117 % WT binding
- Mean % WT Binding [26]: 122 % WT binding
- Mean % WT Binding [27]: 110 % WT binding
- Mean % WT Binding [28]: 81.5 % WT binding
- Mean % WT Binding [29]: 98.9 % WT binding
- Mean % WT Binding [30]: 112 % WT binding
- Mean % WT Binding [31]: 89.7 % WT binding
- Mean % WT Binding [32]: 99.5 % WT binding
- Mean % WT Binding [33]: 110 % WT binding
- Mean % WT Binding [34]: 111 % WT binding
- Mean % WT Binding [35]: 104 % WT binding
- Mean % WT Binding [36]: 110 % WT binding
B3: Refmab #2 (antibody, V domains shown)
VH: B2 VH
VL: B2 VL
notes: The alanine scan used IgG or Fab

- Mean % WT Binding [1]: 98.9%
- Mean % WT Binding [2]: 121%
- Mean % WT Binding [3]: 108%
- Mean % WT Binding [4]: 91.3%
- Mean % WT Binding [5]: 102%
- Mean % WT Binding [6]: 0.1%
- Mean % WT Binding [7]: 108%
- Mean % WT Binding [8]: 88.1%
- Mean % WT Binding [9]: 79.4%
- Mean % WT Binding [10]: 103%
- Mean % WT Binding [11]: 101%
- Mean % WT Binding [12]: 107%
- Mean % WT Binding [13]: 72.9%
- Mean % WT Binding [14]: 109%
- Mean % WT Binding [15]: 104%
B4: Refmab #4 (antibody, V domains shown)
VH: QVQLVQSGAEVKKPGESVKVSCKASGYTFTNYGMNWVKQAPGQGLEWMGWINTYTGEPTYADKFQGRVTMTTDTSTSTAYMEIRNLGGDDTAVYYCARWSWSDGYYVYFDYWGQGTSVTVSS
VL: DIVMTQSPDSLTVSLGERTTINCKSSQSVLDSSTNKNSLAWYQQKPGQPPKLLLSWASTRESGIPDRFSGSGSGTDFTLTIDSPQPEDSATYYCQQSAHFPITFGQGTRLEIK
notes: as for B2
